This is an account of results in publication PMC7534368.

In experiment [1] the target is SARS-CoV-2 spike ectodomain with the wild-type sequence (S-WT), aa 15-1,213, with C-terminal thrombi (SARS-CoV-2 | bacteriophage T4) (UniProt P0DTC2). In words: AUC.
Experiment [2] concerns the target SARS-CoV-2 spike ectodomain, prefusion trimer-stabilized form (S-2P), aa 15-1,213, with C-terminal t (SARS-CoV-2 | bacteriophage T4) (UniProt P0DTC2). In words: cryo-EM structure.

Usually stoichiometry N stands for the number of molecules, sites or subunits per partner or assembly. “SARS-CoV-2 spike ectodomain with the wild-type sequence (S-WT), aa 15-1,213, with C-terminal thrombi (from UniProt P0DTC2 15-1213) (domain or fragment)” returned a stoichiometry N in experiment [1] of 3.

Consider “SARS-CoV-2 spike ectodomain, prefusion trimer-stabilized form (S-2P), aa 15-1,213, with C-terminal t (from UniProt P0DTC2 15-1213) (domain or fragment)”, for which, in experiment [2], the stoichiometry N stood at 3.
